The numbers were not newly measured in paper PMC12291208, which cites them from elsewhere.

As a reminder, the pKa is the negative logarithm of the acid dissociation constant.

In one data set the target is Lys92 (UniProt position 174, RGLAYKYADGK). The following applies: folded protein; Lys92 buried, Lys118 solvent exposed.
Another data set deals with Lys118 (UniProt position 200, YVYKPKNTHEQ). Particulars: folded protein; Lys92 buried, Lys118 solvent exposed.

“Staphylococcal nuclease (SNase) I92K variant (Staphylococcus aureus (inferred from 'staphylococcal'); I92K)”: the pKa in the data set with Lys92 is given as 5.2.

In the case of “Staphylococcal nuclease (SNase) N118K variant (Staphylococcus aureus (inferred from 'staphylococcal'); N118K)”, in the data set with Lys118, the pKa is recorded as 10.4.
